The values that follow are results of earlier work, collected in publication PMC4843017.

By Kd is commonly meant the free concentration of one partner at which half of the binding sites on the other are occupied at equilibrium, for simple one-to-one binding.

The target in this series is Ndc80 complex (Homo sapiens) (UniProt O14777). Kind of series: isothermal titration calorimetry.
Chain of Ndc80 complex (Homo sapiens) (O14777 whole entry, chain 1 of 4): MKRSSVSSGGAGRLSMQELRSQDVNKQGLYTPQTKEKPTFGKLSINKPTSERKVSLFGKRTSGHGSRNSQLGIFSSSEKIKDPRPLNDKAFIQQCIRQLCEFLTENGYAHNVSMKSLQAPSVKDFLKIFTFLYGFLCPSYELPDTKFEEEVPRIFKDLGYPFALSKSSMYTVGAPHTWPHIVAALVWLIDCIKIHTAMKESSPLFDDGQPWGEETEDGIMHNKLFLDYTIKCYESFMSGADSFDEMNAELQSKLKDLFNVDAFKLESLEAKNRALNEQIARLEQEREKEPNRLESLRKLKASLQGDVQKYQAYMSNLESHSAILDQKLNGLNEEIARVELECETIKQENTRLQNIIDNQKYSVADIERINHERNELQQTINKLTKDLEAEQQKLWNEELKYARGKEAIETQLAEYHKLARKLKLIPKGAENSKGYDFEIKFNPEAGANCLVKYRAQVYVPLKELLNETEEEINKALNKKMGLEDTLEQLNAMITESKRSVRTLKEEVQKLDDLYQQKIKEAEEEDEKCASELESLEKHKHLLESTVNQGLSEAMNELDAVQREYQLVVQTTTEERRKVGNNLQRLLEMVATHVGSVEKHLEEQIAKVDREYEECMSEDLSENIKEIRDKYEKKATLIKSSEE
Chain of Ndc80 complex (Homo sapiens) (Q9BZD4 whole entry, chain 2 of 4, further chain): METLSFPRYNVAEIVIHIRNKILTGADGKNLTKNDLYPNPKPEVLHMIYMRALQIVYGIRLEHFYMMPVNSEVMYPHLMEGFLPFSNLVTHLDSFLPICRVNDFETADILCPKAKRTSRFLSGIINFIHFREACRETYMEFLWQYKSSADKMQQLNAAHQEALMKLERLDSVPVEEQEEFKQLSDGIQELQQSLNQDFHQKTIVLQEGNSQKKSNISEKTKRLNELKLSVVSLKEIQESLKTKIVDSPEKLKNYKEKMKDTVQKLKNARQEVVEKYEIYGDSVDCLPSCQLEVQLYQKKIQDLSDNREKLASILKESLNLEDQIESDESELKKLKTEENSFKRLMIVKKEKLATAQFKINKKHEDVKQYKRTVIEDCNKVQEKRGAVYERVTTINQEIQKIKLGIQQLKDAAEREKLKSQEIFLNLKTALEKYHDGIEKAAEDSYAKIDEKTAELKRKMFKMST
Chain of Ndc80 complex (Homo sapiens) (Q8NBT2 whole entry, chain 3 of 4, further chain): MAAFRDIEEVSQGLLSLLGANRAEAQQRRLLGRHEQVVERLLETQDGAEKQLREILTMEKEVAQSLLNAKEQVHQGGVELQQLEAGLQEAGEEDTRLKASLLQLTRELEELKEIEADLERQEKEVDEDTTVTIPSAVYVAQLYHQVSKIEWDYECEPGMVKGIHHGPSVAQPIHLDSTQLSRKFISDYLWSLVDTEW
Chain of Ndc80 complex (Homo sapiens) (Q9HBM1 whole entry, chain 4 of 4, further chain): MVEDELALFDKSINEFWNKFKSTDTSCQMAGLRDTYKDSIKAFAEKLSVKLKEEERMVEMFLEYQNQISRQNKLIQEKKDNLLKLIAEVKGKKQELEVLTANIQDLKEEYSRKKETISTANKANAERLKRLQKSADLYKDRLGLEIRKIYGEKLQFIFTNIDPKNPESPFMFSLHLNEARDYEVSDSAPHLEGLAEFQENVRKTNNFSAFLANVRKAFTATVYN

On to Mis12 complex (from UniProt Q9H081), for which the Kd is 0.01 µM.
